# Measured values from patent US20240343800A1 (Merck KGaA, published 2024).
# Numbering of substitutions follows the chain as printed.
# B1: 82H02 (bispecific TCE of Table 29) (bispecific antibody, V domains shown)
# VH: EVQLLESGGGLVQPGGSLRLSCAASGFTFTSYAMSWVRQAPGKGLEWVSTISGSGGGTYYTDSVKGRFTISRDNSKNTLYLQMNSLRAEDTAVYYCAQGSSIFDYWGQGTLVTVSS
# VL: EIVLTQSPATLSLSPGERATLSCRASQSVSSYLAWYQQKPGQAPRLLIYDASNRATGIPARFSGSGSGTDFTLTISSLEPEDFAVYYCQQRSNWPPCTFGQGTRLEIK
# B2: 82H02 VL1.04 (bispecific TCE of Table 29) (bispecific antibody, V domains shown)
# VH: B1 VH
# VL: not shown
# notes: also called 82H02 v1.04
# B3: 82H02 VL1.08 (bispecific TCE of Table 29) (bispecific antibody, V domains shown)
# VH: B1 VH
# VL: B1 VL with C97Y
# notes: also called 82H02 v1.08
# B4: 82H02 VL1.07 (high) (bispecific TCE of Table 29) (bispecific antibody, V domains shown)
# VH: B1 VH
# VL: B1 VL with C97S
# notes: also called 82H02 v1.07
# B5: 82H02 VL1.02 (bispecific TCE of Table 29) (bispecific antibody, V domains shown)
# VH: B1 VH
# VL: B1 VL with C97R
# notes: also called 82H02 v1.02
# B6: 82H02 VL1.05 (bispecific TCE of Table 29) (bispecific antibody, V domains shown)
# VH: B1 VH
# VL: B1 VL with C97L
# notes: also called 82H02 v1.05
# B7: 82H02 VL1.09 (bispecific TCE of Table 29) (bispecific antibody, V domains shown)
# VH: B1 VH
# VL: B1 VL with C97V
# notes: also called 82H02 v1.09
# B8: 82H02 VL1.06 (low) (bispecific TCE of Table 29) (bispecific antibody, V domains shown)
# VH: B1 VH
# VL: B1 VL with C97F
# notes: also called 82H02 v1.06
# B9: 82H02 VL1.03 (bispecific TCE of Table 29) (bispecific antibody, V domains shown)
# VH: B1 VH
# VL: B1 VL with C97Q
# notes: also called 82H02 v1.03
# B10: 69A02 (bispecific TCE of Table 29) (bispecific antibody, V domains shown)
# VH: QVTLKESGPTLVKPTQTLTLTCSFSGFSITTSGVSVGWIRQPPGKALEWLALIYWDDDKRYSPSLKSRLTITRDTSKNQVVLTMTNMDPVDTATYYCAHAPRYTPGGYFDYWGQGTLVTVSS
# VL: ETTLTQSPATLSVSPGETATLSCRASQSVSSNLAWYQQKPGQAPRLLIYGASTRATGIPATFSGSGSGTEFTLTISSLQSEDFAIYYCQQYKNWPPAFGGGTELEIK
# B11: Parental 1F3.5 (CD3-binding bispecific TCE of Table 30) (bispecific antibody, V domains shown)
# VH: EVQLVESGGGLVQPGGSLRLSCAASGFTFNTYAMNWVRQAPGKGLEWVARIRSKYNNYATYYADSVKDRFTISRDDSKNTLYLQMNSLRAEDTAVYYCVRHGNFGNSYVSWFAYWGQGTMVTVSS
# VL: QAVVTQEPSLTVSPGGTVTLTCRSSTGAVTTSNYANWVQQKPGQAPRGLIGGTNKRAPGTPARFSGSLLGGKAALTLSGVQPEDEAEYYCALWYSNLWVFGGGTKLTVLG
# notes: also called IF3.5
# B12: 1F3.5 VL1.00-VH1.05 (CD3-binding bispecific TCE of Table 30) (bispecific antibody, V domains shown)
# VH: EVQLVESGGGLVQPGGSLKLSCAASGFTFNTYAMNWVRQASGKGLEWVGRIRSKYNNYATYYADSVKGRFTISRDDSKNTAYLQMNSLKTEDTAVYYCVRHGNFGNAYVSFAYWGQGTMVTVSS
# VL: B11 VL
# notes: CD3 Fab arm only; VL1.00 read as the parental 1F3.5 light chain
# B13: 1F3.5 VL1.00-VH1.03 (high) (CD3-binding bispecific TCE of Table 30) (bispecific antibody, V domains shown)
# VH: B11 VH with R19K, P41S, A49G, D68G, R89K, A90T, N106A
# VL: B11 VL
# notes: CD3 Fab arm only; VL1.00 read as the parental 1F3.5 light chain; also called 1F3.5-VH1.03
# B14: 1F3.5 VL1.00-VH1.04 (CD3-binding bispecific TCE of Table 30) (bispecific antibody, V domains shown)
# VH: B11 VH with R19K, P41S, A49G, D68G, R89K, A90T, N106E
# VL: B11 VL
# notes: as for B12
# B15: 1F3.5 VL1.01-VH1.01 (low) (CD3-binding bispecific TCE of Table 30) (bispecific antibody, V domains shown)
# VH: B11 VH with R19K, P41S, A49G, D68G, R89K, A90T
# VL: B11 VL with A2T, R23A, G48A
# notes: CD3 Fab arm only; also called 1F3.5-VH1.01-VL1.01
# B16: 1F3.5 VL1.01-VH1.02 (CD3-binding bispecific TCE of Table 30) (bispecific antibody, V domains shown)
# VH: B11 VH with R19K, P41S, A49G, D68G, L81A, R89K, A90T
# VL: B11 VL with A2T, R23A, G48A
# notes: CD3 Fab arm only
# B17: 1F3.5 VL1.00-VH1.02 (CD3-binding bispecific TCE of Table 30) (bispecific antibody, V domains shown)
# VH: B11 VH with R19K, P41S, A49G, D68G, L81A, R89K, A90T
# VL: B11 VL
# notes: as for B12
# B18: 1F3.5 VL1.01-VH1.00 (CD3-binding bispecific TCE of Table 30) (bispecific antibody, V domains shown)
# VH: B11 VH
# VL: B11 VL with A2T, R23A, G48A
# notes: CD3 Fab arm only; VH1.00 read as the parental 1F3.5 heavy chain
# B19: 1F3.5 VL1.01-VH1.03 (CD3-binding bispecific TCE of Table 30) (bispecific antibody, V domains shown)
# VH: B11 VH with R19K, P41S, A49G, D68G, R89K, A90T, N106A
# VL: B11 VL with A2T, R23A, G48A
# notes: CD3 Fab arm only
# B20: 1F3.5 VL1.01-VH1.04 (CD3-binding bispecific TCE of Table 30) (bispecific antibody, V domains shown)
# VH: B11 VH with R19K, P41S, A49G, D68G, R89K, A90T, N106E
# VL: B11 VL with A2T, R23A, G48A
# notes: CD3 Fab arm only
# B21: 1F3.5 VL1.00-VH1.01 (CD3-binding bispecific TCE of Table 30) (bispecific antibody, V domains shown)
# VH: B11 VH with R19K, P41S, A49G, D68G, R89K, A90T
# VL: B11 VL
# notes: CD3 Fab arm only
# B22: 1F3.5 VL1.01-VH1.05 (CD3-binding bispecific TCE of Table 30) (bispecific antibody, V domains shown)
# VH: B12 VH
# VL: B11 VL with A2T, R23A, G48A
# notes: CD3 Fab arm only
# Target: T1, recombinant human ROR1 extracellular domain protein (human, UniProt Q01973 30-406)
# T1 construct: also called Human/Cyno ROR1
# Experiment: biolayer interferometry, TCE immobilized
# Text: (§1) This example describes biolayer interferometry experiments that were used to determine the binding affinities of bispecific TCEs and sequence optimized variants of the present disclosure.
row,Binder,Kd [nM]
1,B1,5.4
2,B2,50.7
3,B3,166
4,B4,4.2
5,B5,122
6,B6,154
7,B7,160
8,B8,99
9,B9,475
10,B10,3.5

# Target: T2, recombinant human CD3ε/δ heterodimer SEED Fc fusion protein (human, UniProt P07766 23-126; P04234 22-105)
# T2 construct: not shown: SEED Fc arm, not specified
# Experiment: biolayer interferometry, TCE immobilized
# Text: as §1
# T2 sequence (P07766 23-126, stated change not applied, chain 1 of 2): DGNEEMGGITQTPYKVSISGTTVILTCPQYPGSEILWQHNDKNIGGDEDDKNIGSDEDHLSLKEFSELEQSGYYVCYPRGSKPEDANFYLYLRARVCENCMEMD
# T2 sequence (P04234 22-105, stated change not applied, chain 2 of 2): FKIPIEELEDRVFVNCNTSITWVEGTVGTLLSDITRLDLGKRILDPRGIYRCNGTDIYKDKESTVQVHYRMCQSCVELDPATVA
row,Binder,Kd [nM]
1,B11,2.7
2,B12,8.2
3,B13,4.6
4,B14,6.5
5,B15,42
6,B16,47.1
7,B17,5.5
8,B18,62.3
9,B19,84.8
10,B20,74.2
11,B21,2.9
12,B22,59.2
